Laboratory results: US9540620B2, “Methods and compositions for modulating G-alpha-Q signaling” (The University of North Carolina at Chapel Hill, priority 2012, dated 2017)

Tests used:
[1] = tested on: Gαq downstream of the muscarinic receptor; test: Muscarinic receptor-dependent activation of PLC-β, [3H]inositol phosphate accumulation in HEK293 cells; assay type: cell-based; conditions: peptide for 30 minutes (FIG. 9)
Protocol: FIG. 9. Muscarinic receptor-dependent activation of PLC-β was determined by quantification of [^3H]inositol phosphate accumulation. Where indicated, HEK293 cells were treated with Palm-27-mer peptide for 30 minutes.
Since a major tenet of this invention is to interdict Gαq signaling in cells with peptidomimetics, it will be necessary to efficiently introduce peptides derived from this scaffold into cells. […] Moreover, once introduced, this peptide prevented the stimulation of PLC activity by Gαq downstream of the P2Y6 receptor and/or muscarinic receptor, a G protein-coupled receptor selective for Gαq (FIG. 7C and FIG. 9).
Since a major tenet of this work is to downregulate G-alpha-q signaling in cells with peptidomimetics, peptides derived from this scaffold have been efficiently delivered into cells.

activated Gαq = biological target: T1, activated Gαq (Homo sapiens, UniProt P50148); conditions: full-length protein; read-out: dissociation constant (KD) for activated Gαq; cited from earlier work
T1 sequence (P50148 1-359): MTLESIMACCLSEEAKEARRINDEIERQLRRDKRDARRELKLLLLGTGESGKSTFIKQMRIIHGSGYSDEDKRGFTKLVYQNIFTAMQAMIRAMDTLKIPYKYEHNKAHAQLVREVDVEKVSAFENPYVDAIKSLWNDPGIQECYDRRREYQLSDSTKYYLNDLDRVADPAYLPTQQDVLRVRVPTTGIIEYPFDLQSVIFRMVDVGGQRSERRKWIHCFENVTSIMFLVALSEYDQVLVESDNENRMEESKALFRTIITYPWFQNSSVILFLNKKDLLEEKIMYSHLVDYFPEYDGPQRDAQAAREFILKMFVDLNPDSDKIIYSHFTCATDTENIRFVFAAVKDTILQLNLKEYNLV

Gαq = biological target: T2, Gαq (Homo sapiens, UniProt P50148); test: Fluorescence polarization competition: unlabeled PLC-β3 against TAMRA-labeled peptide for Gαq; assay type: binding; conditions: TAMRA-27-mer 400 nM, Gαq 800 nM
T2 sequence (P50148 1-359): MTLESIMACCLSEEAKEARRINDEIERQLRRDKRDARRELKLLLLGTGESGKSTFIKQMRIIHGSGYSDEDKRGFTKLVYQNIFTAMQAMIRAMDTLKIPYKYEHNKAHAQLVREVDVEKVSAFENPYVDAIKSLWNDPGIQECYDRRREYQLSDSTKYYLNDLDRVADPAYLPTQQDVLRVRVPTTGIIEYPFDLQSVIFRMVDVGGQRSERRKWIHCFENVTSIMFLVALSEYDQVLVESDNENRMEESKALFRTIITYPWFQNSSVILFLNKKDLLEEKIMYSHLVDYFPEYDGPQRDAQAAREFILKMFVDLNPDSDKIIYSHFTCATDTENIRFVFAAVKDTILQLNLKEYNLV
Protocol: FIGS. 3A and 3B. TAMRA-27-mer and PLC-β3 directly compete for Gαq. (FIG. 3A) Increasing concentrations of PLC-β3 were added to a solution of TAMRA-27-mer (400 nM) and Gαq (800 nM). The IC50 value is derived from three independent experiments. (FIG. 3B) Phospholipase activity of PLC-β3 activated by Gαq using lipid vesicles and inhibited by increasing concentrations of TAMRA-27-mer.
FIGS. 6A-C. Quantification of Gαq binding to peptides corresponding to the HTH of PLβ3. […] The structures of PLCβ3 (3 OHM) and p63RhoGEF (2RGN) bound to Gαq were superimposed and a single Gαq is shown. Immediately below is shown the sequence alignment of PLCβ3 (SEQ ID NO:37) and p63RhoGEF (SEQ ID NO:41) encompassing the helix-turn-helix. Underlined residues are labeled in the structure. […] (FIG. 6C) Increasing concentrations of unlabeled PLC-β3 were added to a solution of labeled 25-mer (400 nM) and Gαq (4 μM). KD and IC50 values were derived from three independent experiments.
Fluorescence polarization will be used to monitor disruption of complex formation between the 27-mer and active Gαq to identify compounds that directly compete with the complex. It is expected that the majority of these compounds will sit within the canonical effector-binding site of Gαq to prevent the binding of peptide—and by extension, prevent the binding of effectors. However, before using this assay format to identify inhibitors of complex formation it was necessary to insure that peptides corresponding to the HTH of PLC-β3 bound to Gαq. […] These experiments strongly support that peptides corresponding to the HTH of PLC-β3 directly bind to the effector pocket of Gαq and can be used as surrogates of effectors in assays of complex formation with active Gαq.
The most promising peptide consisted of 25 residues (TAMRA-25-mer) spanning the entire HTH and bound to G-alpha-q with appreciable affinity (Kd˜6 microMolar).

Row | Molecule | stimulation of PLC activity by Gαq downstream of the muscarinic receptor [1] | Kd (activated Gαq) [nM] | competition with the 27-mer for binding to Gαq (Gαq)
1 | Palm-PEG-PEG-HQDYAEALANPIKHVSL-Nle-DQRARQLAA (HQDYAEALANPIKHVSLXDQRARQLAA; non-natural residues) [Palm-27-mer, 27-mer HTH peptide with a palmityl lipid linked through PEG linkers] | prevent the stimulation of PLC activity | – | –
2 | PLC-β3: full-length phospholipase C beta 3, effector of Gαq, used as unlabeled competitor (protein) AGAQPGVHALQLEPPTVVETLRRGSKFIKWDEETSSRNLVTLRVDPNGFFLYWTGPNMEVDTLDISSIRDTRTGRYARLPKDPKIREVLGFGGPDARLEEKLMTVVSGPDPVNTVFLNFMAVQDDTAKVWSEELFKLAMNILAQNASRNTFLRKAYTKLKLQVNQDGRIPVKNILKMFSADKKRVETALESCGLKFNRSESIRPDEFSLEIFERFLNKLCLRPDIDKILLEIGAKGKPYLTLEQLMDFINQKQRDPRLNEVLYPPLRPSQARLLIEKYEPNQQFLERDQMSMEGFSRYLGGEENGILPLEALDLSTDMTQPLSAYFINSSHNTYLTAGQLAGTSSVEMYRQALLWGCRCVELDVWKGRPPEEEPFITHGFTMTTEVPLRDVLEAIAETAFKTSPYPVILSFENHVDSAKQQAKMAEYCRSIFGDALLIEPLDKYPLAPGVPLPSPQDLMGRILVKNKKRHRPSAGGPDSAGRKRPLEQSNSALSESSAATEPSSPQLGSPSSDSCPGLSNGEEVGLEKPSLEPQKSLGDEGLNRGPYVLGPADREDEEEDEEEEEQTDPKKPTTDEGTASSEVNATEEMSTLVNYIEPVKFKSFEAARKRNKCFEMSSFVETKAMEQLTKSPMEFVEYNKQQLSRIYPKGTRVDSSNYMPQLFWNVGCQLVALNFQTLDVAMQLNAGVFEYNGRSGYLLKPEFMRRPDKSFDPFTEVIVDGIVANALRVKVISGQFLSDRKVGIYVEVDMFGLPVDTRRKYRTRTSQGNSFNPVWDEEPFDFPKVVLPTLASLRIAAFEEGGKFVGHRILPVSAIRSGYHYVCLRNEANQPLCLPALLIYTEASDYIPDDHQDYAEALINPIKHVSLMDQRARQLAALIGESEAQAGQETCQDTQSQQLGSQPSSNPTPSPLDASPRRPPGPTTSPASTSLSSPGQRDDLIASILSEVAPTPLDELRGHKALVKLRSRQERDLRELRKKHQRKAVTLTRRLLDGLAQAQAEGRCRLRPGALGGAADVEDTKEGEDEAKRYQEFQNRQVQSLLELREAQVDAEAQRRLEHLRQALQRLREVVLDANTTQFKRLKEMNEREKKELQKILDRKRHNSISEAKMRDKHKKEAELTEINRRHITESVNSIRRLEEAQKQRHDRLVAGQQQVLQQLAEEEPKLLAQLAQECQEQRARLPQEIRRSLLGEMPEGLGDGPLVACASNGHAPGSSGHLSGADSESQEENTQL | – | 10 to 100 | could effectively compete
